This passage reports Km results from publication PMC2993938, “Characterization of an Antennal Carboxylesterase from the Pest Moth Spodoptera littoralis Degrading a Host Plant Odorant” (PLoS ONE, 2010).

Substrate in this data set: CC/C=C\CCOC(C)=O
Kind of data set: GC quantification of (Z)-3-hexenol formed, nonlinear regression. The class given is biochemical, Spodoptera littoralis. The conditions noted are these: 20 mM Tris pH 7.4 and 28 °C (stated for the hydrolysis assay), 5 min incubation, 1 mM to 20 mM substrate, no detergent.

B1: SlCXE10 (Spodoptera littoralis) (protein)
chain: MVQVRVSEGVLEGEQVQNEYGGSFYRFRGIPYAQPPLGDLRFKAPQPIKPWQGVRQAKQFGSVCYQYNPTNLGLSNMSEDCLYVNVYTPDIKPQTPIPVMVWIHGGGFMWGSGNDDLYGPEFLIRHNVVLVTFNYRLEALGFLCLDTADVPGNAGMKDQVAALRWVKRNIANFGGNPDNITIFGESAGGGSVSHHLISPMSKGLFNRAIPQSGSTACFWATAFEPKEKAILLAKQLGFHSEDPKELYEFFKKQPCENLVKLNLQVTTSQKSYEIHFSIANEKDFGQERFFYGDIVDVIKNNLQEGVDIMTGYTKDEYTIAVSIGGPLEDILAKAQRYREFFAPKLLHNYGTITDQLEAARKLQKFYFKNEKVSKDNIDNLLNYMSVDMFVYGVMFAAKLYSRKNKVYVYKFNCFSERNVLANAFCVGHLTDDRSVVSHADDLAYLFPVKLFTQKVNKTSVTFKLIDRVTTLWTNFAKYGNPTPDDSLGVKWLPYTLAAQDYMDIGNTLVPGNSPDKEELDFWESVLHQHLPKFSTLNQ
notes: complete ORF (no signal peptide), C-terminal 6His tag kept (pBlueBac4.5/V5-His TOPO), baculovirus / Sf21 cells, Ni-NTA purified, about 60 kDa (predicted 61 kDa)
For the protein B1, the Km (as a rule, the substrate concentration at which the rate is half of its maximum) is 11.4 ± 4.8 mM.
